Earlier results in article PMC8296306.

What was measured:
[1] = target: Cxcl1/KC (Mus musculus) (UniProt P12850)
[2] = target: Cxcl2/MIP2 (Mus musculus) (UniProt P10889)

Question: For Cxcl1/KC (from UniProt P12850), which Kd [1] is on record?
Answer: 35 µM

Question: For Cxcl2/MIP2 (from UniProt P10889), which Kd [2] is on record?
Answer: 15 µM
